Experiments:
HeLa Kyoto [1] = assay: solubility in G1/S (NP-40 vs SDS abundance) (log2 ratio); higher = more soluble; conditions: cell cycle stage: G1/S
HeLa Kyoto [2] = assay: melting temperature (median over replicates), in situ; higher = more thermally stable
HeLa Kyoto [3] = assay: solubility change mitosis vs G1/S (difference of NP-40 vs SDS log2 ratios) (log2 ratio difference); higher = more soluble in mitosis
HeLa Kyoto [4] = assay: thermal stability score vs G1/S (z-score of summed log2 fold changes over temperatures); higher = more thermally stable than in G1/S
[5] = cell cycle stage: early G1 (4.5 h after nocodazole release)
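For melting temperature (median over replicates), in situ in this document: HeLa Kyoto cells synchronized by double thymidine or nocodazole block, proteins quantified by TMT10plex mass spectrometry, three independent biological replicates.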
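For solubility change mitosis vs G1/S (difference of NP-40 vs SDS log2 ratios) in this document: synchronized HeLa Kyoto cells (double thymidine block for G1/S, nocodazole release for mitosis), protein amounts in NP-40 versus SDS lysates quantified by mass spectrometry, three biological replicates.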
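For solubility in G1/S (NP-40 vs SDS abundance) in this document: HeLa Kyoto cells arrested at G1/S by double thymidine block, proteins quantified by TMT10plex mass spectrometry in mild NP-40 versus SDS extracts, three biological replicates.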
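For thermal stability score vs G1/S (z-score of summed log2 fold changes over temperatures) in this document: synchronized HeLa Kyoto cells, proteins quantified by TMT10plex mass spectrometry, three biological replicates, mitosis taken 0.5 h after nocodazole release, G1/S directly after double thymidine block.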

Sequence	solubility in G1/S (log2) (HeLa Kyoto [1])	melting temperature (HeLa Kyoto [2]; cell cycle stage: G1/S) [°C]	melting temperature (HeLa Kyoto [2]; cell cycle stage: mitosis) [°C]	solubility change mitosis (log2) (HeLa Kyoto [3])	thermal stability score (HeLa Kyoto [4]; [5])	thermal stability score (HeLa Kyoto [4]; cell cycle stage: mitosis)
MAGRRVNVNVGVLGHIDSGKTALARALSTTASTAAFDKQPQSRERGITLDLGFSCFSVPLPARLRSSLPEFQAAPEAEPEPGEPLLQVTLVDCPGHASLIRTIIGGAQIIDLMMLVIDVTKGMQTQSAECLVIGQIACQKLVVVLNKIDLLPEGKRQAAIDKMTKKMQKTLENTKFRGAPIIPVAAKPGGPEAPETEAPQGIPELIELLTSQISIPTRDPSGPFLMSVDHCFSIKGQGTVMTGTILSGSISLGDSVEIPALKVVKKVKSMQMFHMPITSAMQGDRLGICVTQFDPKLLERGLVCAPESLHTVHAALISVEKIPYFRGPLQTKAKFHITVGHETVMGRLMFFSPAPDNFDQEPILDSFNFSQEYLFQEQYLSKDLTPAVTDNDEADKKAGQATEGHCPRQQWALVEFEKPVTCPRLCLVIGSRLDADIHTNTCRLAFHGILLHGLEDRNYADSFLPRLKVYKLKHKHGLVERAMDDYSVIGRSLFKKETNIQLFVGLKVHLSTGELGIIDSAFGQSGKFKIHIPGGLSPESKKILTPALKKRARAGRGEATRQEESAERSEPSQHVVLSLTFKRYVFDTHKRMVQSP [EEFSEC]	-0.248	49.3	51.2	0.119	2.19	3.12
MAGRSMQAARCPTDELSLTNCAVVNEKDFQSGQHVIVRTSPNHRYTFTLKTHPSVVPGSIAFSLPQRKWAGLSIGQEIEVSLYTFDKAKQCIGTMTIEIDFLQKKSIDSNPYDTDKMAAEFIQQFNNQAFSVGQQLVFSFNEKLFGLLVKDIEAMDPSILKGEPATGKRQKIEVGLVVGNSQVAFEKAENSSLNLIGKAKTKENRQSIINPDWNFEKMGIGGLDKEFSDIFRRAFASRVFPPEIVEQMGCKHVKGILLYGPPGCGKTLLARQIGKMLNAREPKVVNGPEILNKYVGESEANIRKLFADAEEEQRRLGANSGLHIIIFDEIDAICKQRGSMAGSTGVHDTVVNQLLSKIDGVEQLNNILVIGMTNRPDLIDEALLRPGRLEVKMEIGLPDEKGRLQILHIHTARMRGHQLLSADVDIKELAVETKNFSGAELEGLVRAAQSTAMNRHIKASTKVEVDMEKAESLQVTRGDFLASLENDIKPAFGTNQEDYASYIMNGIIKWGDPVTRVLDDGELLVQQTKNSDRTPLVSVLLEGPPHSGKTALAAKIAEESNFPFIKICSPDKMIGFSETAKCQAMKKIFDDAYKSQLSCVVVDDIERLLDYVPIGPRFSNLVLQALLVLLKKAPPQGRKLLIIGTTSRKDVLQEMEMLNAFSTTIHVPNIATGEQLLEALELLGNFKDKERTTIAQQVKGKKVWIGIKKLLMLIEMSLQMDPEYRVRKFLALLREEGASPLDFD [NSF]	0.236	49.8	49.6	-0.153	0.564	0.772
MAGSSEEAPDYGRGVVIMDDWPGYDLNLFTYPQHYYGDLEYVLIPHGIIVDRIERLAKDIMKDIGYSDIMVLCVLKGGYKFCADLVEHLKNISRNSDRFVSMKVDFIRLKSYRNDQSMGEMQIIGGDDLSTLAGKNVLIVEDVVGTGRTMKALLSNIEKYKPNMIKVASLLVKRTSRSDGFRPDYAGFEIPNLFVVGYALDYNEYFRDLNHICVINEHGKEKYRV [PRTFDC1]	-0.298	56.5	55.5	-0.113	-0.858	-0.334
MAGSSTGGGGVGETKVIYHLDEEETPYLVKIPVPAERITLGDFKSVLQRPAGAKYFFKSMDQDFGVVKEEISDDNARLPCFNGRVVSWLVSSDNPQPEMAPPVHEPRAELAPPAPPLPPLPPERTSGIGDSRPPSFHPNVSSSHENLEPETETESVVSLRRERPRRRDSSEHGAGGHRTGGPSRLERHLAGYESSSTLMTSELESTSLGDSDEEDTMSRFSSSTEQSSASRLLKRHRRRRKQRPPRLERTSSFSSVTDSTMSLNIITVTLNMEKYNFLGISIVGQSNERGDGGIYIGSIMKGGAVAADGRIEPGDMLLQVNDMNFENMSNDDAVRVLRDIVHKPGPIVLTVAKCWDPSPQAYFTLPRNEPIQPIDPAAWVSHSAALTGTFPAYPGSSSMSTITSGSSLPDGCEGRGLSVHTDMASVTKAMAAPESGLEVRDRMWLKITIPNAFLGSDVVDWLYHHVEGFPERREARKYASGLLKAGLIRHTVNKITFSEQCYYVFGDLSGGCESYLVNLSLNDNDGSSGASDQDTLAPLPGATPWPLLPTFSYQYPAPHPYSPQPPPYHELSSYTYGGGSASSQHSEGSRSSGSTRSDGGAGRTGRPEERAPESKSGSGSESEPSSRGGSLRRGGEASGTSDGGPPPSRGSTGGAPNLRAHPGLHPYGPPPGMALPYNPMMVVMMPPPPPPVPPAVQPPGAPPVRDLGSVPPELTASRQSFHMAMGNPSEFFVDVM [DVL2]	-0.00889	47	48.7	-0.0693	0.348	0.985
MAGSVGLALCGQTLVVRGGSRFLATSIASSDDDSLFIYDCSAAEKKSQENKGEDAPLDQGSGAILASTFSKSGSYFALTDDSKRLILFRTKPWQCLSVRTVARRCTALTFIASEEKVLVADKSGDVYSFSVLEPHGCGRLELGHLSMLLDVAVSPDDRFILTADRDEKIRVSWAAAPHSIESFCLGHTEFVSRISVVPTQPGLLLSSSGDGTLRLWEYRSGRQLHCCHLASLQELVDPQAPQKFAASRIAFWCQENCVALLCDGTPVVYIFQLDARRQQLVYRQQLAFQHQVWDVAFEETQGLWVLQDCQEAPLVLYRPVGDQWQSVPESTVLKKVSGVLRGNWAMLEGSAGADASFSSLYKATFDNVTSYLKKKEERLQQQLEKKQRRRSPPPGPDGHAKKMRPGEATLSC [WDR4]	-0.256	52.8	53.9	-0.396	0.0653	-0.0979
MAGTRWVLGALLRGCGCNCSSCRRTGAACLPFYSAAGSIPSGVSGRRRLLLLLGAAAAAASQTRGLQTGPVPPGRLAGPPAVATSAAAAAAASYSALRASLLPQSLAAAAAVPTRSYSQESKTTYLEDLPPPPEYELAPSKLEEEVDDVFLIRAQGLPWSCTMEDVLNFFSDCRIRNGENGIHFLLNRDGKRRGDALIEMESEQDVQKALEKHRMYMGQRYVEVYEINNEDVDALMKSLQVKSSPVVNDGVVRLRGLPYSCNEKDIVDFFAGLNIVDITFVMDYRGRRKTGEAYVQFEEPEMANQALLKHREEIGNRYIEIFPSRRNEVRTHVGSYKGKKIASFPTAKYITEPEMVFEEHEVNEDIQPMTAFESEKEIELPKEVPEKLPEAADFGTTSSLHFVHMRGLPFQANAQDIINFFAPLKPVRITMEYSSSGKATGEADVHFETHEDAVAAMLKDRSHVHHRYIELFLNSCPKGK [GRSF1]	0.345	47.9	49.1	-0.0298	0.523	3.06
MAGTVVLDDVELREAQRDYLDFLDDEEDQGIYQSKVRELISDNQYRLIVNVNDLRRKNEKRANRLLNNAFEELVAFQRALKDFVASIDATYAKQYEEFYVGLEGSFGSKHVSPRTLTSCFLSCVVCVEGIVTKCSLVRPKVVRSVHYCPATKKTIERRYSDLTTLVAFPSSSVYPTKDEENNPLETEYGLSVYKDHQTITIQEMPEKAPAGQLPRSVDVILDDDLVDKAKPGDRVQVVGTYRCLPGKKGGYTSGTFRTVLIACNVKQMSKDAQPSFSAEDIAKIKKFSKTRSKDIFDQLAKSLAPSIHGHDYVKKAILCLLLGGVERDLENGSHIRGDINILLIGDPSVAKSQLLRYVLCTAPRAIPTTGRGSSGVGLTAAVTTDQETGERRLEAGAMVLADRGVVCIDEFDKMSDMDRTAIHEVMEQGRVTIAKAGIHARLNARCSVLAAANPVYGRYDQYKTPMENIGLQDSLLSRFDLLFIMLDQMDPEQDREISDHVLRMHRYRAPGEQDGDAMPLGSAVDILATDDPNFSQEDQQDTQIYEKHDNLLHGTKKKKEKMVSAAFMKKYIHVAKIIKPVLTQESATYIAEEYSRLRSQDSMSSDTARTSPVTARTLETLIRLATAHAKARMSKTVDLQDAEEAVELVQYAYFKKVLEKEKKRKKRSEDESETEDEEEKSQEDQEQKRKRRKTRQPDAKDGDSYDPYDFSDTEEEMPQVHTPKTADSQETKESQKVELSESRLKAFKVALLDVFREAHAQSIGMNRLTESINRDSEEPFSSVEIQAALSKMQDDNQVMVSEGIIFLI [MCM3]	0.00594	51.5	51.2	-0.0464	1.52	2.24
MAGVGAGPLRAMGRQALLLLALCATGAQGLYFHIGETEKRCFIEEIPDETMVIGNYRTQMWDKQKEVFLPSTPGLGMHVEVKDPDGKVVLSRQYGSEGRFTFTSHTPGDHQICLHSNSTRMALFAGGKLRVHLDIQVGEHANNYPEIAAKDKLTELQLRARQLLDQVEQIQKEQDYQRYREERFRLTSESTNQRVLWWSIAQTVILILTGIWQMRHLKSFFEAKKLV [TMED4]	0.179	56	56.4	-0.0477	2.03	0.764
MAGVRSLRCSRGCAGGCECGDKGKCSDSSLLGKRLSEDSSRHQLLQKWASMWSSMSEDASVADMERAQLEEEAAAAEERPLVFLCSGCRRPLGDSLSWVASQEDTNCILLRCVSCNVSVDKEQKLSKREKENGCVLETLCCAGCSLNLGYVYRCTPKNLDYKRDLFCLSVEAIESYVLGSSEKQIVSEDKELFNLESRVEIEKSLTQMEDVLKALQMKLWEAESKLSFATCKS [MIS18A]	-0.162	51.3	51.9	0.371	-2.17	-2.88
MAGVSFSGHRLELLAAYEEVIREESAADWALYTYEDGSDDLKLAASGEGGLQELSGHFENQKVMYGFCSVKDSQAALPKYVLINWVGEDVPDARKCACASHVAKVAEFFQGVDVIVNASSVEDIDAGAIGQRLSNGLARLSSPVLHRLRLREDENAEPVGTTYQKTDAAVEMKRINREQFWEQAKKEEELRKEEERKKALDERLRFEQERMEQERQEQEERERRYREREQQIEEHRRKQQTLEAEEAKRRLKEQSIFGDHRDEEEETHMKKSESEVEEAAAIIAQRPDNPREFFKQQERVASASAGSCDVPSPFNHRPGSHLDSHRRMAPTPIPTRSPSDSSTASTPVAEQIERALDEVTSSQPPPLPPPPPPAQETQEPSPILDSEETRAAAPQAWAGPMEEPPQAQAPPRGPGSPAEDLMFMESAEQAVLAAPVEPATADATEIHDAADTIETDTATADTTVANNVPPAATSLIDLWPGNGEGASTLQGEPRAPTPPSGTEVTLAEVPLLDEVAPEPLLPAGEGCATLLNFDELPEPPATFCDPEEVEGESLAAPQTPTLPSALEELEQEQEPEPHLLTNGETTQKEGTQASEGYFSQSQEEEFAQSEELCAKAPPPVFYNKPPEIDITCWDADPVPEEEEGFEGGD [DBN1]	-1.2	52.3	52.1	0.101	-3.76	-0.742
MAHRPKRTFRQRAADSSDSDGAEESPAEPGAPRELPVPGSAEEEPPSGGGRAQVAGLPHRVRGPRGRGRVWASSRRATKAAPRADEGSESRTLDVSTDEEDKIHHSSESKDDQGLSSDSSSSLGEKELSSTVKIPDAAFIQAARRKRELARAQDDYISLDVQHTSSISGMKRESEDDPESEPDDHEKRIPFTLRPQTLRQRMAEESISRNEETSEESQEDEKQDTWEQQQMRKAVKIIEERDIDLSCGNGSSKVKKFDTSISFPPVNLEIIKKQLNTRLTLLQETHRSHLREYEKYVQDVKSSKSTIQNLESSSNQALNCKFYKSMKIYVENLIDCLNEKIINIQEIESSMHALLLKQAMTFMKRRQDELKHESTYLQQLSRKDETSTSGNFSVDEKTQWILEEIESRRTKRRQARVLSGNCNHQEGTSSDDELPSAEMIDFQKSQGDILQKQKKVFEEVQDDFCNIQNILLKFQQWREKFPDSYYEAFISLCIPKLLNPLIRVQLIDWNPLKLESTGLKEMPWFKSVEEFMDSSVEDSKKESSSDKKVLSAIINKTIIPRLTDFVEFLWDPLSTSQTTSLITHCRVILEEHSTCENEVSKSRQDLLKSIVSRMKKAVEDDVFIPLYPKSAVENKTSPHSKFQERQFWSGLKLFRNILLWNGLLTDDTLQELGLGKLLNRYLIIALLNATPGPDVVKKCNQVAACLPEKWFENSAMRTSIPQLENFIQFLLQSAHKLSRSEFRDEVEEIILILVKIKALNQAESFIGEHHLDHLKSLIKED [GCFC2]	0.109	51.2	51.7	-0.0501	-2.18	-1.62

Source: the supplement of paper PMC5998384
